# From patent US20190153459A1, “RECOMBINANT POLYNUCLEOTIDE INVOLVED IN LACTONE SYNTHESIS AND PROCESS FOR SYNTHESIS OF LACTONES THEREOF” (Council of Scientific & Industrial Research, priority 2016, published 2019)
# T1: MiEH2 (Mangifera indica, UniProt A0A1U9ZCB5)
# T1 sequence (A0A1U9ZCB5 1-318): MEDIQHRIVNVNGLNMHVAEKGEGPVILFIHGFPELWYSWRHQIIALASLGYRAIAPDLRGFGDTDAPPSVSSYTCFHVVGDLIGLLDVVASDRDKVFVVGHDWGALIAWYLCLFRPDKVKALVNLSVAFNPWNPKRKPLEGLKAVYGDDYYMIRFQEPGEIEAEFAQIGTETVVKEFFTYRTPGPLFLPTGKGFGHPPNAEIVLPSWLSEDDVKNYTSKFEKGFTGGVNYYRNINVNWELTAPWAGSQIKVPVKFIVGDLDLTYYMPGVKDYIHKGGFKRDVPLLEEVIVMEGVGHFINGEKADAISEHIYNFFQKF
# B1: MiEH2 (Mangifera indica) (protein)
# chain: T1 sequence (A0A1U9ZCB5 1-318)
# B2: MiEH2: recombinant epoxide hydrolase 2 polypeptide of Mangifera indica, 318 amino acids, 6×His tagged (protein, listed as Mangifera indica)
# chain: T1 sequence (A0A1U9ZCB5 1-318)
# modifications: 6xHis tag
# notes: recombinant epoxide hydrolase 2 polypeptide of Mangifera indica, 318 amino acids, 6×His tagged
# B3: SEQ ID No. 1: 957 bp polynucleotide encoding epoxide hydrolase 2, cloned in pBI121 plant expression vector, agroinfiltrated in mango (nucleic acid)
# DNA: ATGGAAGATATACAGCACAGAATTGTGAATGTCAATGGCTTAAACATGCACGTGGCAGAGAAAGGCGAAGGTCCAGTCATTCTCTTCATTCACGGTTTTCCCGAACTGTGGTACTCCTGGCGGCATCAGATCATCGCCTTGGCTTCCCTCGGCTACCGAGCCATTGCTCCGGATCTACGTGGCTTCGGTGATACTGACGCGCCGCCGTCTGTCTCGAGTTACACGTGTTTCCACGTGGTGGGGGACCTCATTGGACTTCTCGACGTCGTTGCCTCTGATCGGGATAAGGTTTTCGTGGTGGGCCATGATTGGGGTGCTCTTATTGCTTGGTACTTGTGCTTGTTTAGACCGGATAAGGTCAAAGCTTTGGTCAACTTGAGTGTTGCGTTTAATCCCTGGAACCCCAAGAGGAAGCCACTTGAGGGTTTGAAAGCTGTTTATGGTGACGATTATTACATGATCAGATTTCAGGAGCCTGGTGAGATAGAAGCTGAGTTTGCCCAGATTGGTACTGAGACAGTTGTCAAGGAATTCTTTACATACAGGACACCTGGTCCTCTTTTTCTCCCTACAGGTAAAGGATTTGGACATCCCCCAAATGCTGAAATTGTCTTACCCTCTTGGCTATCAGAGGATGATGTTAAAAACTACACCAGCAAATTTGAGAAAGGCTTTACAGGAGGAGTGAACTATTACCGTAATATAAACGTGAACTGGGAACTTACAGCTCCTTGGGCCGGGAGTCAAATAAAGGTTCCTGTTAAGTTCATCGTGGGTGACCTGGACCTGACATATTATATGCCAGGAGTCAAGGATTACATACACAAAGGTGGGTTCAAGCGAGATGTGCCATTATTGGAAGAAGTGATTGTAATGGAAGGTGTAGGTCACTTCATTAATGGAGAAAAGGCTGATGCAATCAGTGAGCACATATACAACTTTTTTCAGAAGTTCTGA
# modifications: cDNA
# notes: 957 bp polynucleotide encoding epoxide hydrolase 2, cloned in pBI121 plant expression vector, agroinfiltrated in mango
# Experiments:
# MiEH2 [1] = target: T1, MiEH2; test: MiEH2 activity assay and enzyme kinetics with epoxide substrates (HRMS); assay type: biochemical; conditions: for product formation by MiEH2 with substrate (HRMS extracted ion chromatogram): 200 μM substrate, pH 7.0, 30° C., FIG. 3; for Vmax: recombinant MiEH2, substrate kinetics
# Description: (§1) Similar activity assays were carried out with protein expressed from empty vector for confirmation of EH2 activity. Optimum pH was determined by calculating activity at varied range of pH in phosphate citrate buffer at 30° C., whereas temperature optima was determined by calculating MiEH2 activity in phosphate citrate buffer pH 7 at various temperatures. After incubation and catalytic activity of EH 2, products were extracted in chloroform:methanol (2:1); completely dried in vacuum evaporator and reconstituted in the methanol. HRMS analysis carried out by accurate mass (molecular ion) identification. […] Extracted compounds from CSO and TSO assay reactions were separated by water (A):methanol (B) solvent gradient, 0-1 min 80% (A)/20% (B); 1-2 min 60% (A)/40% (B); 2-4 min 40% (A)/60% (B); 4-11 min 20% (A)/80% (B); 11-16 min 0% (A)/100% (B), hold for 2 min and again back to 80% (A)/20% (B) in 3 min with 2 min hold at flow rate 500 μl min^−1. […] Quantitative analysis of CSO and TSO assay products was done by plotting standard graph of product standards. Full scans for both programs were acquired on positive ion mode with AGC target value of 1E6, resolution of 70,000 at scan range 100-500 m/z, and maximum ion injection time (IT) of 250 ms.
# [2] = substrate: c1ccc([C@H]2O[C@H]2c2ccccc2)cc1; test: as above; assay type: biochemical, Mangifera indica; conditions: other: recombinant MiEH2, substrate kinetics; pH 7.0
# Description: as §1
# [3] = substrate: c1ccc([C@H]2O[C@@H]2c2ccccc2)cc1; test: as above; assay type: biochemical, Mangifera indica; conditions: other: recombinant MiEH2, substrate kinetics; pH 7.0
# Description: as §1
# MiEH2 [4] = target: T1, MiEH2; test: Optimum pH and temperature of MiEH2 activity; assay type: biochemical
# Description: Similar activity assays were carried out with protein expressed from empty vector for confirmation of EH2 activity. Optimum pH was determined by calculating activity at varied range of pH in phosphate citrate buffer at 30° C., whereas temperature optima was determined by calculating MiEH2 activity in phosphate citrate buffer pH 7 at various temperatures. After incubation and catalytic activity of EH 2, products were extracted in chloroform:methanol (2:1); completely dried in vacuum evaporator and reconstituted in the methanol. HRMS analysis carried out by accurate mass (molecular ion) identification. Identified products from assay reaction were confirmed with mass and retention time indices of authentic standards R,R hydrobenzoin and meso hydro benzoin. Extracted compounds from CSO and TSO assay reactions were separated by water (A):methanol (B) solvent gradient, 0-1 min 80% (A)/20% (B); 1-2 min 60% (A)/40% (B); 2-4 min 40% (A)/60% (B); 4-11 min 20% (A)/80% (B); 11-16 min 0% (A)/100% (B), hold for 2 min and again back to 80% (A)/20% (B) in 3 min with 2 min hold at flow rate 500 μl min^−1. […] Quantitative analysis of CSO and TSO assay products was done by plotting standard graph of product standards. Full scans for both programs were acquired on positive ion mode with AGC target value of 1E6, resolution of 70,000 at scan range 100-500 m/z, and maximum ion injection time (IT) of 250 ms.
# [5] = test system: ethylene treated mango fruits; test: Transient over expression of SEQ ID No. 1 (MiEH2) in mango fruits via agroinfiltration, lactone content by GC-FID; assay type: in vivo, Mangifera indica
# Description: The full length sequence of MiEH2, i.e. SEQ ID No. 1 was cloned in a pBI121 plant expression vector between CaMV 35S promoter and GusA gene. Terminal primers were designed (Table 1A) to clone genes at BamHI restriction site. Resulted correct oriented construct pBI121+SEQ ID No. 1 and pBI121 empty vector as control were transformed in the Agrobacterium GV3101 strain for transient expression studies. Separate Agrobacterium cultures (5 mL) were initiated from individual colonies in YEB medium having appropriate antibiotics and incubated overnight at 28° C. This culture was transferred to 50 mL induction medium comprising 0.5% beef extract, 0.1% yeast extract, 0.5% peptone, 0.5% sucrose, 2 mM MgSO4, […] acetosyringone, 10 mM MES, pH 5.6, having appropriate antibiotics, and again grown overnight. Cultures were recovered by centrifugation on the next day, resuspended in infiltration medium (10 mM MgCl2, 10 mM MES, […] acetosyringone, pH 5.6) till optical density reached 1.0. This suspension was again incubated at 28° C. with gentle agitation for 2 hrs.
# Over expression studies for EH2 were carried out by Agrobacterium mediated infiltration in ethylene treated mango fruits at 3DAH stage by using hypodermic syringe. Equal volumes of said constructs i.e. pBI121+MiEH2 and pBI121 empty vector construct were used for infiltration in two different halves of same mango fruit separated by fruit stone. […] Thus control (empty vector) and test over expressions were carried out in same fruit to avoid error in lactone content analysis. Five distinct mango fruits were used for overexpression study of MiEH2. Infiltrated fruits were kept at 25° C. for 2 days in 12 hr dark and 12 hr light conditions, after 2 days; part from each fruit halves was checked by Gus staining (Kapila et al. 1997; Spolaore et al. 2001) to confirm expression of MiEH2 under 35S promoter along with GusA, remaining part of fruit pulp stored in −80° C. until used for lactone analysis by gas chromatography. […] Lactones were analysed from control and test region of fruits. A total of 8 lactones viz. γ-butyrolactone, δ-valerolactone, γ-hexalactone, δ-hexalactone, γ-octalactone, γ-octalactone, γ-decalactone and δ-decalactone were detected from all tissues in GC-MS analysis.
# GC-MSD and GC-FID analysis for lactones was carried out using a 7890B GC system Agilent Technologies coupled with Agilent 5977A MSD (Agilent technologies, CA, USA). […] To understand effect of gene over expression by transient expression on lactone biosynthesis, qualitative and quantitative analysis for lactones alone was carried out in the present study. […] Absolute quantification was done using internal standard by normalizing concentrations of all the lactones with that of known concentration of nonyl acetate.
# [6] = pBI121+SEQ ID No. 1 vs empty pBI121 vector in same fruit, 2 days post infiltration
molecule,measurement,setting,value
"c1ccc([C@H]2O[C@@H]2c2ccccc2)cc1 (relative stereo) [TSO, trans-stilbene oxide]",product formation by MiEH2 with substrate (HRMS extracted ion chromatogram),MiEH2 [1],product formation
same,Vmax,MiEH2 [1],TSO- 1055.55 ± 55.55 μM min^−1mg^−1
"c1ccc([C@H]2O[C@H]2c2ccccc2)cc1 [CSO, cis-stilbene oxide]",product formation by MiEH2 with substrate (HRMS extracted ion chromatogram),MiEH2 [1],product formation
same,Vmax,MiEH2 [1],CSO- 26.5252 ± 4.81 μM min^−1mg^−1
B1,Km,[2],CSO- 0.165 ± 0.044 mM
same,Km,[3],TSO- 0.113 ± 0.003 mM
B2,Optimum temperature,"MiEH2 [4]; phosphate citrate buffer pH 7, various temperatures",45 °C
same,Optimum pH,"MiEH2 [4]; phosphate citrate buffer, 30° C., varied pH",8
B3,lactone content on transient over expression,[5]; Alphonso mango,significant increase
same,increase in γ-hexalactone content compared to control tissue,[5]; [6],1.96 fold
same,increase in δ-hexalactone content compared to control tissue,[5]; [6],1.98 fold
same,increase in δ-valerolactone content compared to control tissue,[5]; [6],1.46 fold
